Measured values as given in paper PMC9894162.

Target: GST-NS5 (Zika virus, UniProt A0A1B0XTC8 2521-3423)
Test: EMSA

B1: genomic Sox2 DNA duplex (dsDNA)
DNA 1: TCAGCAAGCGCCTGGGCGCCGAGTGGAAACTTTTG
DNA 2: CAAAAGTTTCCACTCGGCGCCCAGGCGCTTGCTGA
B1: binds.
